According to the nanobody polyreactivity screen of Harvey et al. (2022):

Test: yeast display, Sf9 membrane polyspecificity reagent, FACS + sequencing; frameworks hold sequencing errors
Procedure, shortened: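 After 36–48 hours of galactose induction, yeast (Saccharomyces cerevisiae BJ5465) displaying a synthetic nanobody library were stained at 4 °C for 1 hour with 10% biotinylated, detergent-solubilized Sf9 membrane reagent. Streptavidin microbeads enriched the stained cells before FACS sorting into low and high (top ~1%) gates on anti-HA and streptavidin fluorescence. Each clone's polyreactivity label reflects its gate of origin.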

Sequence	polyreactivity (PSR sort gate)
QVQLVESGGGLVQAGGSLRLSCAASGSTFTGNAMGWSRQAPGKERELVAAITDRGGSTYADSVKGRFTISRDNAKNTVYLQMNSLKPEDSAVYYCATRRDLHDRYEYDYWGQGTQVTVSS	low polyreactivity
QVQLVESGGGLVQAGGSLRLSCAASGLTCGKYAMGWYRQAPGKERELVAAINSSGGSTYYADSVKGRFTISRDNAKNTVYLQMNSLKPEDTAVYYCAVAVYRLIYFEYNYWGQGTQVTVSS	low polyreactivity
QVQLVESGGGLVQAGGSLRLSCAASGSIIVPYAMGWYRQAPGKERELVAAISSRGGRTYYADSVKGRFTISRDNAKNTVYLQMNSLKPEDTAVYYCNKTAGSHIPRLEYWGQGTQVTVSS	low polyreactivity
QVQLVESGGGLVQAGGSLRLSCAASGLIFWEYAMGWYRPAPGNERELVASITWGGGGTYYADSVKGRFTISRYNAKNTVNLHKNSLKPEDTAVYYSAVGPYYQSTQIYDYWGQGTQVTVSS	low polyreactivity
QVQLVESGGGLVQAGGSLRLSCAASGSTLRGYAMGWYRQAPGKEMELVAAITRSGGSTYYADSVKGRFTISRDNAKNTVYLQMNSLKPEDTAVYYCNARAFPYYRRFDYWGQGTQVTVSS	high polyreactivity
QVQLVESGGGLVQAGGSHRLSSAASVRIFRGYAMGWYRPAPGKERELVAVISYSGTRTYYADSVKGRFTISRDNAKNTVYLQMNSLKPEDTAVYYCNASANGFKEGYWGQGTQVTVSS	high polyreactivity
QVQLVESGGGLVQAGGSLRLSCAASGRIFYGYTMGWYRQAPGKERELVAAISWSGGSTSYADSVKGRFTISRDNAKNTVYLQMNSLKPEDTAVYYCDVRYPGYRLYWGYTYDYWGQGTQVTVSS	high polyreactivity
QVQLVESGGGLVQAGGSLRLSCAASGRIFVRYAMGWYRPAPGKERELVATISSRGGSTYYADSVKGRFTISRDNAKNTVYLQMTSLKPEDTAVYYWAAYVYPWGRDYWGQGTQVTVSS	high polyreactivity
QVQLVDSGGGLVQAGGSLRLSCAASGSTVKYAMGWYRQAPGKERELVASIRRSGGSTYYADSVKGRFTISRDNAKITVYLKMNSLNPEDTAVYYCAAPLFRWMDYWGQGTQVTVSS	high polyreactivity
QVQLVESGGGLVQAGGSLRLSCAASGSIFKRYAMGWYRHAPGKERELVAAISYSGGSTNYADSVKGRFTISRDNAKNTVYLQMNSLKPEDTAVYYCAKRSTSRGYDYWGQGTQVTVSS	high polyreactivity
QVQLVESGGGLVQAGGSLRLSCAASGSIFYDYMGWYRQAPGKERELVAVISYSGSSTYYADSVKGRFTISRDNAKNTVYLQMNSLKPEDTAVYYCAARNVNGWDYDYWGQGTQVTVSS	low polyreactivity
QVQLVESGGGLVQAGGSLRLSCAASGRTFIRNVMGWYRQAPGKERELVAAISTRGGSTYYADSVKGRFTISRDIAKNTVYLQMNSMKPEDTAVYYCASVIRCRYSYYEYDYWGQGTQETVSS	high polyreactivity
QVQLVESGGGLVQAGGSLRLSCAASGSTSPRNAMGWYRQAPGKERELVAAISSGGRTNYAVSVKGRFTISRDNAKNTVYLQMNSLKPEDTAVYYCAAAVQSTYWGQGTQVTVSS	low polyreactivity
KVQLVESGGGLVQEGGSLPLSCAASGRTFDYNTMGWYRQAPGKERELVAAISSRGDSTYYADSVKGLFTISRDKAKNTVYLQMNSLNPEDTAVYYCAARYYPGRGFGYGYWGQGTQVTVSS	high polyreactivity
QVQLVESGGGLVQAGGSLRLSCAASGSTFVSNAMGWYRQAPGKERELVATITTSGGSTYYADSVKGRFTISRDNAKNTVYLQMNSLKPEDTAVYYCNADYDFNFIDWVYFLYDYWGQGTQVTVSS	low polyreactivity
QVQLVESGGGLVQAGGSLRLSCAASGSTFDYYTIGWYRQAPGKERELVAAISSSGGSTYYADSVKGRFTISRDNAKNTVYLQMNSLKPEDTAVYYCAADPSPYGDEYDYWGQGTQVTVSS	low polyreactivity
QVQLVESGGGLVQAGCSLRLSCAASGSIFAPYAMGWYRQAPGKERELVAAISYSGGSTYYADSVKGRLTISRDNAKNTVYLQMNSLKPEDTAVYYCAARVLHQDFYKRYYWGQGTQVTVSS	high polyreactivity
QVQLQESGGGLLQAGGSLRLSCAASGNFFDADIMGWYRQAPGKERELVASITDGGSTNYADRVKGRFTISRGNTKNTVYLLMNCLKPDDTSVYYCAAIAYPDIPTYFDYNSDYFYGGQGTQVTVSS	high polyreactivity
QVQLVESGGGLVQAGGSLRLSCAASGSIFYHNAMGWYRQAPGKERELVATISWRSASTYYADSVKGRFRISRDNAKNTVYLQMNSLKPEDTAVYYCAAKLQYRQYYYRYGYDYWGQGTQVTVSS	high polyreactivity
QVQLVESGGGLVQAGGRLRLTCAASGLTFYSYAMRCYRQAPAKERELVAAISWTGGSTYYADSEKGRFTISRDNAKNTVYLQMNSLKPEDTAVYYCAAVDYWVSGDYYWGQGTQVTVSS	high polyreactivity
QDQLVESGGGLVHAGGSLRLSCAASGNNFSSYVMGWYRQATGKERELVAAISSRGGSTYYADSVKGRFTISRDNSKNTVYLQMNCLKPEDTAVYYCAARYLSCYDWGQGTQVSVSS	high polyreactivity
QVQLVESGGGLVQAGGSLRLSCAASGITFAYNAMGWYRQAPGKERELVAAITTGGDTYYADSVKGRFTISRDNAKNTVYLQMNSLKPEDTAVYYCAATPTYWYLWSPYDYWGQGTQVTVSS	low polyreactivity

Sequence	polyreactivity (PSR sort gate)
QVHLVESGGGLLQAGGILSLSCAASGITIIVYVMGWYRQAPGKERELVATITYDDSTYADSVKGRFTISRDNAKNTVYFQMNSLKPEDTAVYYDYWGQGTQVTVSS	low polyreactivity
HVQLVESGGGLVQAGGSLRLSCAASGYIFYVYAMGWYRQAPGKERELVAAINSGDITSYADSVKGRFTISRDNAKNTVYFQMNSLKPEDTAVYYCATVLILIYDYWGQGTQVTVSS	low polyreactivity
QVQLVESGGGLVQAGGSLRLSCAASGSIFAYNAMGWYRQAPGKERELVAGISSRGVSTYADSVKGRFTISRDNAKNTVYLQMNSLKPEDTAVYYCARGGYWGKRGRYDYWGQGTQVTVSS	low polyreactivity
QVQLVESGGGLVQAGGSLRLSCAASGRTFNSYAMGWSRQAPGKDRELVAAISRTGASTYYADSVKGRFTISRDNAQNTVYLQMHSLKPEDTAVYYCAADANSGDGYYWGHGTQVTVSS	high polyreactivity
QVQLVESGGGLVQAGGSLRLICAASGRIFYINAMGWYRQPPGKERELVAAITGGDGSTTYADSVKGRFTISRDNAKNTVYLQMNSLKPEDTAVYYCYADTARKYAESQFDHWGQGTQVTVSS	low polyreactivity
QVQLVESGGGLVQAGASLRLSCAAAGITIGSNVMGWYRQAPRKERELVAAISQCGGRTYYADSVKGRFTISRDYAKNTVYLQMNSMKPEDTAVYYCAKRQRSFYGRPMCDYWGQGTQVTVSS	high polyreactivity
QVQLVESGGGLVQAGGSLRISCAASGRTFADYAMGWSRQEPGKERELVAAISWSGGSTYYADSVKGRFTISCDNAKNTVYLQMNSLKPEDTAVYYSNAVRQRGYDYWGQGTQVTVSS	low polyreactivity
QVQLVESGGGLVQAGGSLRLSCAASGRIFDDYGMGWYRQAQGKESELVAGISFIAGSTYYADSVKGRFTISRDNAKNTVYLQMNSLKPEDTAVYYCAVELWYEYYYWGQGTQVTVSS	high polyreactivity
QVQLVESGGGLVQAGGSLRLSCAASGRIFPSYAMGWYRQAPGKERELVAAISSSGGRTYYADSVKGRFTISRDNAKNTVYLQRNSLKPEDSAVYYCAARWVQYGVRYDYWGHGTQVTVSS	high polyreactivity
QVQLVESGGGLVQAGGSLRLSCAASGLNFKLYAMGWYRQAPGKEREFVATITGIGGSTYYADSVKGRFTISRDNAKNTVYLQMNSLKPEVTAVYYCAGDAWFLPYNYWGQGTQVTVSS	low polyreactivity
QVQLVESGGGLVQAGGSLRLSCAASGIIFNSYAMGWYRQAPGKERELVAAITRAGRTYYADSVKGRFPISRDNAKNTVDLQMNSLKPEDTAVYYCAAAFLSRVQGYDSWGQGTQVTVSS	high polyreactivity
PVQLVESGGGLVQAGGSLRLICAASGSIFYQYTMGWYRQAPGKERELVATISWSDVSTYYADSVKGRFTISRENAQNPVYLQMNSLKPEDTSVYYCAALYSGWDRYYGYDYWGQGTQVTVSS	low polyreactivity
QVQLVESGGGLVQAGGSLRLSCAASGSIFTTYAMGWYRQAPGKERELVAAISSGGGTNYADSVKGRFTISRDNAKNTVYLQMNSLKPEDTAVYYCNKRYYRLQLHNAYGATPRRNYWGQGTQVTVSS	low polyreactivity
QVQLVESGGGLFQAGGSLRLSCAASGLIFRAYAMVWYRQSPGKERELVADITRSGGRTYYADSVKGRFTISRDNAKNTVYLQMNSLKPEDTAVYYCAAYVYSYWFYRGYEYWGQGTQVTVSS	high polyreactivity
QVQLVESGGGLLQAGGSLRLSCAASGSIIFYYAMGWYRQAPGKEREFVAAITRSGVRTYYADSGKGRFTISRDNAKNTVYLQMNSLKPEDNAVYYCHADYGFYRPVLMGYWGQGTQVTVSS	low polyreactivity
QVQLVESGGGLVQAGGSLRLSCAASGSNFVKYVMGWSRQAPGKERELVAAITWRGGRTYYADSVKGRFTISRDNEKNTVYLQMNSLKPEDTAVYYCAAYDQSLYGRRYDYWGQGTQVTVST	high polyreactivity
QVQLVESGGGIVQAGGSLRLSCAASGRIFVDYDMGWYRQATGKERELVATISSGGSTNYADSVKGRFTISRDNAKNTVYLQMNSLKPEDSAVYHCNKDYHVRYYYWGQGTQVTVSS	low polyreactivity
QVQLVESGGGLVQAGGSLRLSSAASGSIFWPNTMGWYRPAPGKERELVAGISFGGGSTYYADSVKGRFTISRDNAKNTVYLQMNRLKPEDTAVYYCNGDDPGYAGPWYWFKYDYWGQGTQVTVSS	low polyreactivity
QVQLVESGGGLVQAGGSLRLSSAASGSTFISYAMGRYSQAPGQDRELVAAISSGGGRTSYADSVKGRLTISRDHAKNTVYLQMNSLKPEDTAVYYCNKTPHFPRPGFNYWGQGTHVTVSS	low polyreactivity
QVQLVESGGGLVQAGGSLRLSCAASGRIFAYYAMGWYRQAPGKERELVATITRGGNTNYADSVKGRFTISRDNAKNTVYLQMNSLKPEDTAVYYCNRRYSRWGIYDYWGQGTQVTVSS	high polyreactivity
QVQLVESGGGLVQAGGSLRLICAASGSTFGIYAMGWFRQAPGKERELVAAISWRGGRTYYADSVKGSFTISRDNAKNNVYLQRNSLKPEDTAVYNCSADYRYLWEGYDYWGQGTQVTVSS	low polyreactivity
